Target: rA3GR8/E259A (Macaca mulatta (rhesus macaque), UniProt M1GSK9 1-138+=AEAG+147-383, E259A;internal_change)
Assay: EMSA

TTTTGATTTT (ssDNA) [GA-DNA 10 nt]
Kd: 473 ± 95 nM

TTTTAATTTT (ssDNA) [AA-DNA 10 nt]
Kd: 318 ± 64 nM

Reference: article PMC11467180
